# Measured values as given in US11142752B2, “Pullulanase mutant” (Jiangnan University, priority 2018, dated 2021).
# Positions count from the first letter of the chain named. Names and notes keep the numbering of the source.
# B1: Mutant F476M: Bacillus subtilis str. 168 pullulanase mutated at position 476 (F to M) (protein, UniProt C0SPA0 1-718, looked up, variant F476M)
# Pullulanase: MVSIRRSFEAYVDDMNIITVLIPAEQKEIMTPPFRLETEITDFPLAVREEYSLEAKYKYVCVSDHPVTFGKIHCVRASSGHKTDLQIGAVIRTAAFDDEFYYDGELGAVYTADHTVFKVWAPAATSAAVKLSHPNKSGRTFQMTRLEKGVYAVTVTGDLHGYEYLFCICNNSEWMETVDQYAKAVTVNGEKGVVLRPDQMKWTAPLKPFSHPVDAVIYETHLRDFSIHENSGMINKGKYLALTETDTQTANGSSSGLAYVKELGVTHVELLPVNDFAGVDEEKPLDAYNWGYNPLHFFAPEGSYASNPHDPQTRKTELKQMINTLHQHGLRVILDVVFNHVYKRENSPFEKTVPGYFFRHDECGMPSNGTGVGNDIASERRMARKFIADCVVYWLEEYNVDGFRFDLLGILDIDTVLYMKEKATKAKPGILLFGEGWDLATPLPHEQKAALANAPRMPGIGFFNDMFRDAVKGNTMHLKATGFALGNGESAQAVMHGIAGSSGWKALAPIVPEPSQSINYVESHDNHTFWDKMSFALPQENDSRKRSRQRLAAAIILLAQGVPFIHSGQEFFRTKQGVENSYQSSDSINQLDWDRRETFKEDVHYIRRLISLRKAHPAFRLRSAADIQRHLECLTLKEHLIAYRLYDLDEVDEWKDIIVIHHASPDSVEWRLPNDIPYRLLCDPSGFQEDPTEIKKTVAVNGIGTVILYLASDLKSFA
# B2: Mutant F476V: Bacillus subtilis str. 168 pullulanase mutated at position 476 (F to V) (protein, UniProt C0SPA0 1-718, looked up, variant F476V)
# Pullulanase: B1 Pullulanase with M476V
# B3: Mutant F476C: Bacillus subtilis str. 168 pullulanase mutated at position 476 (F to C) (protein, UniProt C0SPA0 1-718, looked up, variant F476C)
# Pullulanase: B1 Pullulanase with M476C
# B4: Mutant F476A: Bacillus subtilis str. 168 pullulanase mutated at position 476 (F to A) (protein, UniProt C0SPA0 1-718, looked up, variant F476A)
# Pullulanase: B1 Pullulanase with M476A
# B5: [Brevibacterium] halotolerans Wild enzyme: wild pullulanase of [Brevibacterium] halotolerans (OEC77647.1, SEQ ID NO: 23) (protein)
# chain: MVSIQRSFEAYADEMNIITVLIPADQKDTFTPPFQLETDTAEIPLTVSQEWQIEGKCKYVCVAEQPVTFGKTHHVKASGGGKTDLQIGAVVRTDAFDAAFYYDGELGAVYTSDYTEFKVWAPAATSAAVKLSHPEKSGHTLQMTRMENGVYAVTVAGDLHGYEYVYRICNNLEWTETVDPYAKAVTVNGEKGVVLRPDQANSAPSLAPFSDPVDAIIYEMHIRDFSIHENSGMKNKGKYSALAETDTKTKNGSSTGLSYLKELGVTHIELLPLNDYAGVDEENPLAAYNWGYNPLHFFAPEGSYASNPHDPQTRNTEVKQMIHTLQQHGLRVILDVVYNHVYQREHSPFEKTVPGYFFRHDQFGMPSNGTGVGNDIASERRMARKFITDCVMYWLKEYDVDGFRFDLLGILDIETVLHMKEKASEVKPGILLFGEGWDLATPLPPEQKATLANASKMPGVGFFNDSFRDAVKGNTFHIAAAGFALGNGEQTETVMRGIAGSSGWKETAPLVSAPSQSINYVESHDNHTFWDKMSLALPQESESRKRSRQKLASAIILLAQGVPFIHSGQEFFRTKQGVENSYQSSDSINQLDWSRRETFKQDVDYVRRLISLRKAHPAFRLTSSADIQRCLECLALKEHLIVYRLFNLGAIDEWEEIIVIHHASPDSVTWQLPKDKAYRLLCDTDGFRADPGEIKKAVAVNGIGTVILF
# modifications: bacterial
# B6: Geobacillus stearothermophilus Wild enzyme: wild pullulanase of Geobacillus stearothermophilus (KZE96788.1, SEQ ID NO: 20) (protein)
# chain: MLHISRTFAAYLDEIDQITVIVPKARCLDNMEPFVMTAPSGEDIPLVVQQKEDLGDAVKYVCRFSVPFQIGETHWIRARSGEESDVQIGAVVRTAAFDDQFFYDGKLGVEYAKEQTIFRVWAPTATAVSVKLVHPDHGDVRYVPLVRGERGVWSVAVSGDWERARYMYVACINRVWREAVDPYATAVSVNGEHGVIVDWEKTKLAKPAPPLPPCPSPTDAVIYELSIRDFTSHPDSGAVWKGKYLGLTEEHTRGPNGTVTGLSYLKELGVTHVQLMPFADFAGVDERDPQAAYNWGYNPLHLYAPEGSYATDPHDPYARIVELKQAIRALQENGLRVVMDAVYNHVYDREQSPLENLVPGYYFRYDAYGRPANGTGVGNDIASERRMARRWIVDSVVFWAKEYGINGFRFDLMGVHDIETMKSVRDALDAIDPSILVYGEGWDLPTPLAPEQKATMANAKRLPRLAYFNDRFRDAVKGSTFYLPDRGFALGDSAGREQVKTAIAGSLQAFGGLFCHPLQSINYVECHDNHTFWDKMEAANGHEPEWLRRKRQKLATAIVLLAQGIPFLHSGQEFYRTKGGDENSYRSPDAVNRLDWERKSRYEDDVRYIQGLIAIRRAHGAFRLATEVDVQRHLTFLEPIPPSVIAYWLRDVALYGLWTDIVVIHHNEETGVVIALPDDGEWHVVCDGERSGTVPLRQVRRFLDADGIGTWVLVKTGAAADVENGK
# modifications: bacterial
# B7: Bacillus halotolerans Wild enzyme: wild pullulanase of Bacillus halotolerans (WP_106020274.1, SEQ ID NO: 26) (protein)
# chain: MVCIQRSFEAYADEMNIITVLIPADQKDTFTPPFQLETDTAEIPLTVSQEWQIEGKYKYVCVAEQPVAFGKTHHVKASGGGKTDLQIGAVVRTDAFDAAFYYDGELGAVYASDYTEFKVWAPAATSAAVKLSHPEKSGYTLQMTRMENGVYAVTVAGDLHGYEYVYRICNNLEWTETVDPYAKAVTVNGEKGVVLRPDQANSAPSFTPFSAPVDAIIYEMHIRDFSIHENSGTKNKGKYAALAETDTKTKNGSSTGLSYLKELGVTHIELLPLNDYAGVDEENPLAAYNWGYNPLHFFAPEGSYSSNPHDPQTRNTEVKQMIHTLHQHGLRVILDVVYNHVYQREHSPFEKTVPGYFFRHDQFGMPSNGTGVGNDIASERRMARKFITDCVMYWLKEYDVDGFRFDLLGILDIETVLHMKEKASEVKSGILLFGEGWDLATPLPPEQKATLANASKMPGVGFFNDSFRDAVKGNTFHIAAAGFALGNGEKTETVMHGIAGSSGWKETAPLVSAPSQSINYVESHDNHTFWDKMSLALPQESESRKRSRQKLASAIILLAQGVPFIHSGQEFFRTKQGVENSYQSSDSINQLDWSRRETFKQDVDYVRRLISLRKAHPAFRLTSSADIQRCLECLALKEHLIVYRLFNLGAIDEWEEIIVIHHASPDSVTWQLPKDKAYRLLCDTDGFRADHGEIKKAVAVNGIGTVILYLARDLTSFA
# modifications: bacterial
# Assays:
# Experiment in all cases: Inhibitory effect of cyclodextrin on pullulanase enzyme activity (DNS method, pullulan substrate)
# Type in all cases: biochemical
# [1] = test system: pullulanase derived from Bacillus subtilis str. 168; details: Bacillus subtilis str. 168 pullulanase, 1% pullulan pH 6.0, 40° C., 30 min; for Reduction rate of specific enzyme activity in existence of α-CD: inhibitor α-CD (0.1 mL of 10 mM cyclodextrin); for Reduction rate of specific enzyme activity in existence of β-CD: inhibitor β-CD (0.1 mL of 10 mM cyclodextrin); for Reduction rate of specific enzyme activity in existence of γ-CD: inhibitor γ-CD (0.1 mL of 10 mM cyclodextrin)
# Description: (§1) 2. Measurement of Enzyme Activity of the Pullulanase:
# (§2) A 3,5-dinitrosalicylic acid (DNS) method is adopted. The pullulanase catalyzes the hydrolysis of pullulan to produce reducing sugar under certain conditions, 3,5-dinitrosalicylic acid and the reducing sugar are reduced under thermal conditions to produce a brown-red amino complex, the color depth is directly proportional to the amount of the reducing sugar within a certain range, and the measurement can be performed at the wavelength of 540 nm so as to calculate the enzyme activity. Enzyme activity unit definition: the amount of the enzyme that catalyzes the production of the reducing sugar equivalent to 1 μmol of glucose reducing power per minute is defined as one activity unit.
# (§3) 3. Measurement of the Enzyme Activity Comprises the Following Steps:
# (§4) A. preheating: putting 1 mL of a 1% pullulan solution of which the pH value is 6.0 and 0.1 mL of a buffer solution of which the pH value is 6.0 in a centrifuge tube, and performing thermal insulation for 10 min on a water bath of 40° C.;
# (§5) B. reaction: adding 0.1 mL (10 U) of an enzyme solution, performing shaking and mixing uniformly, performing accurate timing for 30 min, adding 1.5 mL of DNS for stopping reaction, performing treatment in a boiling water bath for 10 min, and performing instant cooling; and
# (§6) C. measurement: measuring the light absorption value under the condition of 540 nm, and calculating the activity.
# (§7) Reduction of the Inhibitory Effect of Enzyme Activity Characterization:
# (§8) A. preheating: putting 1 mL of the 1% pullulan solution of which the pH value is 6.0 and 0.1 mL of 10 mM cyclodextrin in the centrifuge tube, and performing thermal insulation for 10 min on the water bath of 40° C.;
# B. reaction: adding 0.1 mL (10 U) of the enzyme solution, performing shaking and mixing uniformly, performing accurate timing for 30 min, adding 1.5 mL of DNS for stopping reaction, performing treatment in the boiling water bath for 10 min, and performing instant cooling; and […]
# [2] = test system: pullulanase of [Brevibacterium] halotolerans
# Description: as §1, §2, §3, §4, §5, §6, §7, §8
# (§9) B. reaction: adding 0.1 mL (10 U) of the enzyme solution, performing shaking and mixing uniformly, performing accurate timing for 30 min, adding 1.5 mL of DNS for stopping reaction, performing treatment in the boiling water bath for 10 min, and performing instant cooling; and
# (§10) On the basis, the phenylalanine at the position 481 of the Geobacillus stearothermophilus, the phenylalanine at the position 478 of the [Brevibacterium] halotolerans and the phenylalanine at the position 476 of the […] are mutated, obtained mutants and the mutation effects are shown in the table below. The key amino acid site is applicable to the pullulanase from different sources.
# [3] = test system: pullulanase of Geobacillus stearothermophilus
# Description: as §1, §2, §3, §4, §5, §6, §7, §8, §9, §10
# [4] = test system: pullulanase of Bacillus halotolerans
# Description: as §1, §2, §3, §4, §5, §6, §7, §8, §9, §10
Molecule,Reduction rate of specific enzyme activity in existence of α-CD [1] [%],Reduction rate of specific enzyme activity in existence of β-CD [1] [%],Reduction rate of specific enzyme activity in existence of γ-CD [1] [%],also measured
B1,6.5,20.6,16.1,–
B2,7.2,16.7,12.3,–
B3,4.3,17.2,5.6,–
B4,3.5,5.6,5.8,–
B5,–,–,–,Reduction rate of specific enzyme activity in existence of α-CD ([2]; inhibitor α-CD): 15.3%; Reduction rate of specific enzyme activity in existence of β-CD ([2]; inhibitor β-CD): 47.2%; Reduction rate of specific enzyme activity in existence of γ-CD ([2]; inhibitor γ-CD): 6.1%
B6,–,–,–,Reduction rate of specific enzyme activity in existence of α-CD ([3]; inhibitor α-CD): 16.9%; Reduction rate of specific enzyme activity in existence of β-CD ([3]; inhibitor β-CD): 51.2%; Reduction rate of specific enzyme activity in existence of γ-CD ([3]; inhibitor γ-CD): 7.7%
B7,–,–,–,Reduction rate of specific enzyme activity in existence of α-CD ([4]; inhibitor α-CD): 17.2%; Reduction rate of specific enzyme activity in existence of β-CD ([4]; inhibitor β-CD): 35.9%; Reduction rate of specific enzyme activity in existence of γ-CD ([4]; inhibitor γ-CD): 6.7%
